Where two headings read alike, the source gives them in different places. Where a SMILES comes first, the peptide text is derived from it. Bridges are numbered along the chain shown (N, C = ends). [ ]: non-standard residue; d: D form. The star is where a group is joined. DOTA = O=C(O)CN1CCN(CC(=O)O)CCN(CC(=O)*)CCN(CC(=O)O)CC1; 2Nal = N[C@@H](Cc1ccc2ccccc2c1)C(=O)O; Cit = NC(=O)NCCC[C@H](N)C(=O)O
Assay: Ex vivo biodistribution in U87-CXCR4 + tumour-bearing mice
Parameters: species or system BALB/c nude mice
Conditions: mouse; for tissue to tissue ratio at 24 h / tissue uptake dose at 1 h / tissue uptake dose at 4 h / tissue uptake dose at 24 h / tissue uptake dose at 168 h / SUV at 1 h / SUV at 4 h / SUV at 24 h / SUV at 168 h: female, BALB/c nude, iv, 1.5 MBq, total radioactivity; for tissue uptake dose at 1 h / tissue uptake dose at 4 h / tissue uptake dose at 24 h / tissue uptake dose at 168 h: %IA
Method: For the generation of the subcutaneous GBM xenograft model, BALB/c nude mice (between 8 and 12 weeks old) were anesthetised with 2.5% isoflurane in O2 at a flow rate of 0.2 L/min and subcutaneously injected on the right shoulder with 3 × 10^6 U87-CXCR4 + cells resuspended in a 1:1 mixture of PBS and Cultrex BME (R&D Systems, Bio-Techne, Minnesota, US). Tumours were left to grow for ten days before the start of the experiment. Tumour volumes were calculated as length × width × height. Three days before the experiment, the mean tumour volumes of all mice were 255 ± 119 mm^3.
The pharmacokinetic profile of [^177Lu]Lu-POL3026 was evaluated in female BALB/c nude mice with subcutaneous xenografts of U87-CXCR4 + tumours.
All animals were anesthetised with 2.5% isoflurane in O2 at a flow rate of 1 L/min and intravenously (IV) injected with 1.5 MBq of [^177Lu]Lu-POL3026 via a tail vein (radiolabelled with a Am of 53.1 ± 0.55 MBq/nmol). The mice were sacrificed by an overdose of pentobarbital (200 µL of 60 mg/mL) at 1-, 4-, 24- and 168 h post-injection (p.i.) (n = 3–4 per time point), followed by cardiac puncture. Organs of interest were collected in tarred tubes and weighed. The activity in the different organs was measured in the automated gamma counter described above. For the calculation of the total activity in the blood, bone, and muscle, the masses were assumed to be 7, 12 and 40% of the total body mass, respectively. Data is shown as standardised uptake value (SUV), calculated using the following equation:
SUV = [Activity in organ (cpm) / Organ weight (g)] / [(Injected activity (cpm) / Total body weight (g)].

N=C(N)NCCC[C@@H]1NC(=O)[C@@H]2CSSC[C@H](NC(=O)[C@H](Cc3ccc4ccccc4c3)NC(=O)[C@H](CCCNC(=N)N)NC(=O)[C@H](CCCNC(=N)N)NC(=O)[C@H]3CCCN3C(=O)CNC1=O)C(=O)N[C@@H](Cc1ccc(O)cc1)C(=O)N[C@@H](CCC(N)=O)C(=O)N[C@@H](CCCCNC(=O)CN1CCN(CC(=O)O)CCN(CC(=O)O)CCN(CC(=O)O)CC1)C(=O)N1CCC[C@@H]1C(=O)N1CCC[C@H]1C(=O)N[C@@H](Cc1ccc(O)cc1)C(=O)N[C@@H](CCCNC(=N)N)C(=O)N[C@@H](CCCNC(N)=O)C(=O)N2 [[^177Lu]Lu-DOTA-POL3026, metal not drawn] (cyclo(RR[2Nal]CYQK(DOTA)[dP]PYR[Cit]CRG[dP]); disulfide 4-13)
tissue to tissue ratio at 24 h (24 h p.i., read-out: tumour-to-kidney ratio): 0.7 | tissue uptake dose at 1 h (Blood): 15.2 %ID | tissue uptake dose at 4 h (Blood): 3.73 %ID | tissue uptake dose at 24 h (Blood): 0.14 %ID | tissue uptake dose at 168 h (Blood): 0.04 %ID | tissue uptake dose at 1 h (Blood on tissue paper): 3.79 %ID | tissue uptake dose at 4 h (Blood on tissue paper): 1.56 %ID | tissue uptake dose at 24 h (Blood on tissue paper): 0.51 %ID | tissue uptake dose at 168 h (Blood on tissue paper): 0.2 %ID | tissue uptake dose at 1 h (Bone): 8.81 %ID | tissue uptake dose at 4 h (Bone): 14.4 %ID | tissue uptake dose at 24 h (Bone): 7.05 %ID | tissue uptake dose at 168 h (Bone): 2.14 %ID | tissue uptake dose at 1 h (Brain): 0.09 %ID | tissue uptake dose at 4 h (Brain): 0.03 %ID | tissue uptake dose at 24 h (Brain): 0.01 %ID | tissue uptake dose at 1 h (Carcass): 28.5 %ID | tissue uptake dose at 4 h (Carcass): 18.3 %ID | tissue uptake dose at 24 h (Carcass): 12.8 %ID | tissue uptake dose at 168 h (Carcass): 3.02 %ID | tissue uptake dose at 1 h (Heart): 0.71 %ID | tissue uptake dose at 4 h (Heart): 0.22 %ID | tissue uptake dose at 24 h (Heart): 0.09 %ID | tissue uptake dose at 168 h (Heart): 0.01 %ID | tissue uptake dose at 1 h (Intestines): 5.63 %ID | tissue uptake dose at 4 h (Intestines): 3.76 %ID | tissue uptake dose at 24 h (Intestines): 2.14 %ID | tissue uptake dose at 168 h (Intestines): 0.59 %ID | tissue uptake dose at 1 h (Kidneys): 4.03 %ID | tissue uptake dose at 4 h (Kidneys): 4.99 %ID | tissue uptake dose at 24 h (Kidneys): 3.65 %ID | tissue uptake dose at 168 h (Kidneys): 0.61 %ID | tissue uptake dose at 1 h (Liver): 31.6 %ID | tissue uptake dose at 4 h (Liver): 39.8 %ID | tissue uptake dose at 24 h (Liver): 39.2 %ID | tissue uptake dose at 168 h (Liver): 14.2 %ID | tissue uptake dose at 1 h (Lungs): 2.72 %ID | tissue uptake dose at 4 h (Lungs): 1.87 %ID | tissue uptake dose at 24 h (Lungs): 0.59 %ID | tissue uptake dose at 168 h (Lungs): 0.06 %ID | tissue uptake dose at 1 h (Muscle): 9.87 %ID | tissue uptake dose at 4 h (Muscle): 4.89 %ID | tissue uptake dose at 24 h (Muscle): 3.78 %ID | tissue uptake dose at 168 h (Muscle): 0.57 %ID | tissue uptake dose at 1 h (Pancreas): 0.3 %ID | tissue uptake dose at 4 h (Pancreas): 0.16 %ID | tissue uptake dose at 24 h (Pancreas): 0.1 %ID | tissue uptake dose at 168 h (Pancreas): 0.02 %ID | tissue uptake dose at 1 h (Spleen): 4.01 %ID | tissue uptake dose at 4 h (Spleen): 2.02 %ID | tissue uptake dose at 24 h (Spleen): 1.61 %ID | tissue uptake dose at 168 h (Spleen): 0.72 %ID | tissue uptake dose at 1 h (Stomach): 0.35 %ID | tissue uptake dose at 4 h (Stomach): 0.31 %ID | tissue uptake dose at 24 h (Stomach): 0.17 %ID | tissue uptake dose at 168 h (Stomach): 0.03 %ID | tissue uptake dose at 1 h (Tail): 2.05 %ID | tissue uptake dose at 4 h (Tail): 1.75 %ID | tissue uptake dose at 24 h (Tail): 1.7 %ID | tissue uptake dose at 168 h (Tail): 0.53 %ID | tissue uptake dose at 1 h (Tumour): 1.54 %ID | tissue uptake dose at 4 h (Tumour): 1.01 %ID | tissue uptake dose at 24 h (Tumour): 1.46 %ID | tissue uptake dose at 168 h (Tumour): 0.29 %ID | SUV at 1 h (Blood): 2.17 SUV | SUV at 4 h (Blood): 0.53 SUV | SUV at 24 h (Blood): 0.02 SUV | SUV at 1 h (Bone): 0.73 SUV | SUV at 4 h (Bone): 1.2 SUV | SUV at 24 h (Bone): 0.59 SUV | SUV at 168 h (Bone): 0.18 SUV | SUV at 1 h (Brain): 0.05 SUV | SUV at 4 h (Brain): 0.02 SUV | SUV at 24 h (Brain): 0.01 SUV | SUV at 1 h (Heart): 1.33 SUV | SUV at 4 h (Heart): 0.46 SUV | SUV at 24 h (Heart): 0.17 SUV | SUV at 168 h (Heart): 0.02 SUV | SUV at 1 h (Kidneys): 2.57 SUV | SUV at 4 h (Kidneys): 3.34 SUV | SUV at 24 h (Kidneys): 2.41 SUV | SUV at 168 h (Kidneys): 0.38 SUV | SUV at 1 h (Liver): 5.27 SUV | SUV at 4 h (Liver): 7.32 SUV | SUV at 24 h (Liver): 6.46 SUV | SUV at 168 h (Liver): 2.3 SUV | SUV at 1 h (Lungs): 4.74 SUV | SUV at 4 h (Lungs): 3.24 SUV | SUV at 24 h (Lungs): 1.02 SUV | SUV at 168 h (Lungs): 0.08 SUV | SUV at 1 h (Muscle): 0.25 SUV | SUV at 4 h (Muscle): 0.12 SUV | SUV at 24 h (Muscle): 0.09 SUV | SUV at 168 h (Muscle): 0.01 SUV | SUV at 1 h (Pancreas): 0.3 SUV | SUV at 4 h (Pancreas): 0.19 SUV | SUV at 24 h (Pancreas): 0.13 SUV | SUV at 168 h (Pancreas): 0.02 SUV | SUV at 1 h (Spleen): 8.67 SUV | SUV at 4 h (Spleen): 6.77 SUV | SUV at 24 h (Spleen): 4.83 SUV | SUV at 168 h (Spleen): 1.84 SUV | SUV at 1 h (Tumour): 1.39 SUV | SUV at 4 h (Tumour): 1.74 SUV | SUV at 24 h (Tumour): 1.79 SUV | SUV at 168 h (Tumour): 0.32 SUV | tissue to tissue ratio at 24 h (tumour-to-blood ratio): 89 | tissue to tissue ratio at 24 h (tumour-to-liver ratio): 0.3 | tissue to tissue ratio at 24 h (tumour-to-muscle ratio): 19 | %IA, Brain: 0.00 %IA | SUV, Blood: 0.00 | SUV, Brain: 0.00 | SUV, Tumour: 1.9
